Results taken from article doi:10.1101/2024.02.23.581731 (bioRxiv, 2024).
“And” between values parts separate entries of the source, which are not always exact repeats. Equal entries are not always repeated. Where two headings read alike, the source gives them in different places.

B1: human wild-type 5-HT3A receptor (receptor, UniProt P46098 24-478, looked up)
chain: RRSRNTTRPALLRLSDYLLTNYRKGVRPVRDWRKPTTVSIDVIVYAILNVDEKNQVLTTYIWYRQYWTDEFLQWNPEDFDNITKLSIPTDSIWVPDILINEFVDVGKSPNIPYVYIRHQGEVQNYKPLQVVTACSLDIYNFPFDVQNCSLTFTSWLHTIQDINISLWRLPEKVKSDRSVFMNQGEWELLGVLPYFREFSMESSNYYAEMKFYVVIRRRPLFYVVSLLLPSIFLMVMDIVGFYLPPNSGERVSFKITLLLGYSVFLIIVSDTLPATAIGTPLIGVYFVVCMALLVISLAETIFIVRLVHKQDLQQPVPAWLRHLVLERIAWLLCLREQSTSQRPPATSQATKTDDCSAMGNHCSHMGGPQDFEKSPRDRCSPPPPPREASLAVCGLLQELSSIRQFLEKRDEIREVARDWLRVGSVLDKLLFHIYLLAVLAYSITLVMLWSIWQYA
B2: mouse wild-type 5-HT3A receptor (receptor, UniProt P23979 24-489, looked up)
chain: SRRRATQARDTTQPALLRLSDHLLANYKKGVRPVRDWRKPTTVSIDVIMYAILNVDEKNQVLTTYIWYRQYWTDEFLQWTPEDFDNVTKLSIPTDSIWVPDILINEFVDVGKSPNIPYVYVHHRGEVQNYKPLQLVTACSLDIYNFPFDVQNCSLTFTSWLHTIQDINITLWRSPEEVRSDKSIFINQGEWELLEVFPQFKEFSIDISNSYAEMKFYVIIRRRPLFYAVSLLLPSIFLMVVDIVGFCLPPDSGERVSFKITLLLGYSVFLIIVSDTLPATAIGTPLIGVYFVVCMALLVISLAETIFIVRLVHKQDLQRPVPDWLRHLVLDRIAWILCLGEQPMAHRPPATFQANKTDDCSGSDLLPAMGNHCSHVGGPQDLEKTPRGRGSPLPPPREASLAVRGLLQELSSIRHFLEKRDEMREVARDWLRVGYVLDRLLFRIYLLAVLAYSITLVTLWSIWHYS

Tests used:
cryo-EM structure [1] = biological target: the molecule itself; experiment: cryo-EM structure
cryo-EM structure [2] = biological target: the molecule itself; experiment: cryo-EM structure; remark: listed apart in the source

Row | Protein | stoichiometry N (cryo-EM structure [1]) | stoichiometry N (cryo-EM structure [2])
1 | B1 | 5 and 4 | 
2 | B2 |  | 5
